Measured values taken from patent US20190134153A1, “IMMUNOMODULATORY EFFECT OF INHALED KINASE INHIBITOR PEPTIDES IN LUNG” (MOERAE MATRIX, INC., priority 2017, published 2019).

Columns and labels:
Assay in all cases: Kinase Profiling Assay
Format in all cases: biochemical
Settings in all cases: 100 μM
CDK5/p25(h) = CDK5/p25(h) (Homo sapiens, UniProt Q00535)
CHK2(R145W)(h) = CHK2(R145W)(h) (Homo sapiens, UniProt O96017, R145W)
DRAK1(h) = target: T1, DRAK1(h) (Homo sapiens, UniProt Q9UEE5)
T1 sequence (Q9UEE5 1-414): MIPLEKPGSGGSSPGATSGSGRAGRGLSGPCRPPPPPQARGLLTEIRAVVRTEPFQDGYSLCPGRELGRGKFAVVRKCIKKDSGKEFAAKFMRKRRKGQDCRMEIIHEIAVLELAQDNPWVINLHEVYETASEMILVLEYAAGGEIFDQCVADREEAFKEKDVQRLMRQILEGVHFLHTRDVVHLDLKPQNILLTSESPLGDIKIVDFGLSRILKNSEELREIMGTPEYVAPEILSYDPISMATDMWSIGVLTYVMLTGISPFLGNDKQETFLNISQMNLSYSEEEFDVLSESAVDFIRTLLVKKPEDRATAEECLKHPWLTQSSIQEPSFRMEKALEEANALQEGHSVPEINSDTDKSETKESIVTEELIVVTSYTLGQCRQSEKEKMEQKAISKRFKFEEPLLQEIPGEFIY

EphA4(h) = EphA4(h) (Homo sapiens, UniProt P54764)
Hck(h) activated = Hck(h) activated (Homo sapiens, UniProt P08631)
IRAK1(h) = IRAK1(h) (Homo sapiens, UniProt P51617)
MINK(h) = MINK(h) (Homo sapiens, UniProt Q8N4C8)
MSSK1(h) = MSSK1(h) (Homo sapiens, UniProt Q9UPE1)
mTOR/FKBP12(h) = mTOR/FKBP12(h) (Homo sapiens, UniProt P42345)
NLK(h) = target: T2, NLK(h) (Homo sapiens, UniProt Q9UBE8)
T2 sequence (Q9UBE8 1-527): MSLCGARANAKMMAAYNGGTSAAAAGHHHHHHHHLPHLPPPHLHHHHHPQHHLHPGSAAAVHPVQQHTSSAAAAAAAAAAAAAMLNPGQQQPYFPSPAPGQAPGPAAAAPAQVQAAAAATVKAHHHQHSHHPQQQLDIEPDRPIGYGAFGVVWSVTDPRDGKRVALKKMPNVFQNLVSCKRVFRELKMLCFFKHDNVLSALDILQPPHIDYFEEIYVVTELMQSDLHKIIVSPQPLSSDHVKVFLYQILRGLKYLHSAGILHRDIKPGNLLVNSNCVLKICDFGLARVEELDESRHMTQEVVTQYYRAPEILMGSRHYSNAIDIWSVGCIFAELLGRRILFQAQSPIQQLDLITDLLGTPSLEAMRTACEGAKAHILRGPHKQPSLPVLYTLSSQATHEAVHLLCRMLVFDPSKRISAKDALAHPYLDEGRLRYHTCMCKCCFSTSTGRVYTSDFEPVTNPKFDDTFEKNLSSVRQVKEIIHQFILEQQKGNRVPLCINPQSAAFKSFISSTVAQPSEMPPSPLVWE

PAK4(h) = PAK4(h) (Homo sapiens, UniProt O96013)
PAK5(h) = PAK5(h) (Homo sapiens, UniProt Q9P286)
PKBγ(h) = PKBγ(h) (Homo sapiens, UniProt Q9Y243)
PKCγ(h) = PKCγ(h) (Homo sapiens, UniProt P05129)
SRPK1(h) = SRPK1(h) (Homo sapiens, UniProt Q96SB4)
Txk(h) = target: T3, Txk(h) (Homo sapiens, UniProt P42681)
T3 sequence (P42681 1-527): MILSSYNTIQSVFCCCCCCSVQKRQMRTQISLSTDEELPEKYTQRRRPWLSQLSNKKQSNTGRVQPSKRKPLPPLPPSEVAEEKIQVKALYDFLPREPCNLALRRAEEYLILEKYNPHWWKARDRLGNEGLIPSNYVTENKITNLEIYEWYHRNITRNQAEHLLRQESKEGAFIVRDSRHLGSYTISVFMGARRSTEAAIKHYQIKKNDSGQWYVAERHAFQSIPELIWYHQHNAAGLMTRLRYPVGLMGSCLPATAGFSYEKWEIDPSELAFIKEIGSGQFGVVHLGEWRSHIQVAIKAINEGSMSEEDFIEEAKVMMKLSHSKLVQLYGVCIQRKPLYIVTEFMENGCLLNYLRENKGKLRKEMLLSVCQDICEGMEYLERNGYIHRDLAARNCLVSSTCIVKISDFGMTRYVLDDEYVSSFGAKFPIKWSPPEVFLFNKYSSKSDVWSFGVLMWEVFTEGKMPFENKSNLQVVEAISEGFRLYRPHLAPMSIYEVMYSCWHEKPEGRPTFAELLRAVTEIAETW

WNK2(h) = WNK2(h) (Homo sapiens, UniProt Q9Y3S1)
Met(Y1248D)(h) = Met(Y1248D)(h) (Homo sapiens, UniProt P08581, Y1230D)

Sequence of CDK5/p25(h) (Q00535 whole entry): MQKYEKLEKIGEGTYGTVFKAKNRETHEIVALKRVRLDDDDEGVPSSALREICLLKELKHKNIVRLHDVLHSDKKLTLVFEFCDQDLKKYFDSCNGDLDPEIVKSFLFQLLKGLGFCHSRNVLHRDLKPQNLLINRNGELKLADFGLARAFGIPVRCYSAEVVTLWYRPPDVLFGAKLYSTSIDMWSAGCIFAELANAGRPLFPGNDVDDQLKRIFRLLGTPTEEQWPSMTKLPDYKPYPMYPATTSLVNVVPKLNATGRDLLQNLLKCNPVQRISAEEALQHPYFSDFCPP
Sequence of CDK5/p25(h) (Q15078 99-307 partner limits assumed): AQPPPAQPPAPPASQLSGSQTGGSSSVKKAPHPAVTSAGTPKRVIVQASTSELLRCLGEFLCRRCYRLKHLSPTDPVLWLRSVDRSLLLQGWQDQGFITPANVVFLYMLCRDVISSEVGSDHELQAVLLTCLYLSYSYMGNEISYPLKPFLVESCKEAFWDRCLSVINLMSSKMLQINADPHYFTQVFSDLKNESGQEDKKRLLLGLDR
Sequence of SRPK1(h) (Q96SB4 whole entry): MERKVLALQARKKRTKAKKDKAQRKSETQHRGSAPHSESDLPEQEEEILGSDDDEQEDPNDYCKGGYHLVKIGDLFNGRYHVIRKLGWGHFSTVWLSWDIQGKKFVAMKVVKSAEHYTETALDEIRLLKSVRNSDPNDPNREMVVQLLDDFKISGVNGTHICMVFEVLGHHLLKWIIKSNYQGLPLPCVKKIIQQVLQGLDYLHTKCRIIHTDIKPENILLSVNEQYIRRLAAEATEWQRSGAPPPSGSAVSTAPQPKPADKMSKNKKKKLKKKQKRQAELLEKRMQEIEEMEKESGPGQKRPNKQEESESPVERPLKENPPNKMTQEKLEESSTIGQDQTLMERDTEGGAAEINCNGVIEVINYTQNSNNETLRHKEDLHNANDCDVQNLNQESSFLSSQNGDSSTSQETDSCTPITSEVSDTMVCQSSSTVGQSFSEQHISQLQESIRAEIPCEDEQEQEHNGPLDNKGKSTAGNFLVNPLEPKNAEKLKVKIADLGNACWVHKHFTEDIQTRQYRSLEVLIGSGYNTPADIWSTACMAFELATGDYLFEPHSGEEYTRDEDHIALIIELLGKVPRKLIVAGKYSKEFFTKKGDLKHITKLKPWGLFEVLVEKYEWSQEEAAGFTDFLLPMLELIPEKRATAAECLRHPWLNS
Sequence of PKBγ(h) (Q9Y243 whole entry): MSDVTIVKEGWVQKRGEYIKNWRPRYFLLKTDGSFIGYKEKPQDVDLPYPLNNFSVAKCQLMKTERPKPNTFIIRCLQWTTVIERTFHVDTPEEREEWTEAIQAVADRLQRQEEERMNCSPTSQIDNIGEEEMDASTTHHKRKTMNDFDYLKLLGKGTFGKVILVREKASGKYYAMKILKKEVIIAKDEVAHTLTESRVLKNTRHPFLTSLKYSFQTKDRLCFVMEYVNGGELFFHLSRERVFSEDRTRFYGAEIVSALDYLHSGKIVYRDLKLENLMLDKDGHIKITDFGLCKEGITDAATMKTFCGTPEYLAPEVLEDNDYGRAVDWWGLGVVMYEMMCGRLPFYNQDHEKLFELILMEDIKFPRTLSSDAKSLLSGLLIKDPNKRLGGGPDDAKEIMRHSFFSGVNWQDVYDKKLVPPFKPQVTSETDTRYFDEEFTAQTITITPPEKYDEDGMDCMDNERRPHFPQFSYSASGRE
Sequence of MINK(h) (Q8N4C8 whole entry): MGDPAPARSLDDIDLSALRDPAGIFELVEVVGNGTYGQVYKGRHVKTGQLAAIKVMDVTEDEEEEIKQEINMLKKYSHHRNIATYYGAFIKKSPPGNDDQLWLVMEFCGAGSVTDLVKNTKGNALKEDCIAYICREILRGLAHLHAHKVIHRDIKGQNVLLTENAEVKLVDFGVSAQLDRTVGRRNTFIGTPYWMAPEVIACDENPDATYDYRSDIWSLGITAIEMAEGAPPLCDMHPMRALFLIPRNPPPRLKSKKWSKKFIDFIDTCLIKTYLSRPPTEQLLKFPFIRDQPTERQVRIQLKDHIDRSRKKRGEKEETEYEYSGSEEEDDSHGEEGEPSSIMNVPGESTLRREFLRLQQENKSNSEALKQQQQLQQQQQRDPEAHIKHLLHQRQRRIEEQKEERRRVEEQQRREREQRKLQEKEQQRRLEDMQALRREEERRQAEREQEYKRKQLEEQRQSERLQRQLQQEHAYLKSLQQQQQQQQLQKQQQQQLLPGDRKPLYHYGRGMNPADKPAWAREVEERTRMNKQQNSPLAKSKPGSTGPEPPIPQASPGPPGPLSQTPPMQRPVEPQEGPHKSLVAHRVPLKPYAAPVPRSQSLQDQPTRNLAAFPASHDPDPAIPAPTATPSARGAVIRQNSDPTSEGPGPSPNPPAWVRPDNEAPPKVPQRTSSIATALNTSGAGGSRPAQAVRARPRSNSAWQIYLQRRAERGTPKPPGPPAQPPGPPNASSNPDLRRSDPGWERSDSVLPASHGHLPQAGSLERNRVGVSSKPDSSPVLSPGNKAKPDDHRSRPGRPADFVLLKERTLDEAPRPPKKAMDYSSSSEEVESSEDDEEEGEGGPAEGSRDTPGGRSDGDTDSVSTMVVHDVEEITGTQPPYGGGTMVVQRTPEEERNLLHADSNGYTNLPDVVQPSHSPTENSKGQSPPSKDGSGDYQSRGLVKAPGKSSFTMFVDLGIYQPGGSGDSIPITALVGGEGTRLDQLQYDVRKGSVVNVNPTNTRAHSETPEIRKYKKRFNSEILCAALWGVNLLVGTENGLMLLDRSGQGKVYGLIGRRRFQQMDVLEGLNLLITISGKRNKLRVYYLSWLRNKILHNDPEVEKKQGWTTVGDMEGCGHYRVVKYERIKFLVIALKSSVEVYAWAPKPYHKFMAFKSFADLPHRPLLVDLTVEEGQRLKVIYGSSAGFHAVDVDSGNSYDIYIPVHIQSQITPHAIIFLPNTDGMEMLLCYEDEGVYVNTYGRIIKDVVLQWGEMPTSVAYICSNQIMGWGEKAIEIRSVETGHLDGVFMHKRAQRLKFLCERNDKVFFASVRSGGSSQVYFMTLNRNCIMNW
Sequence of IRAK1(h) (P51617 whole entry): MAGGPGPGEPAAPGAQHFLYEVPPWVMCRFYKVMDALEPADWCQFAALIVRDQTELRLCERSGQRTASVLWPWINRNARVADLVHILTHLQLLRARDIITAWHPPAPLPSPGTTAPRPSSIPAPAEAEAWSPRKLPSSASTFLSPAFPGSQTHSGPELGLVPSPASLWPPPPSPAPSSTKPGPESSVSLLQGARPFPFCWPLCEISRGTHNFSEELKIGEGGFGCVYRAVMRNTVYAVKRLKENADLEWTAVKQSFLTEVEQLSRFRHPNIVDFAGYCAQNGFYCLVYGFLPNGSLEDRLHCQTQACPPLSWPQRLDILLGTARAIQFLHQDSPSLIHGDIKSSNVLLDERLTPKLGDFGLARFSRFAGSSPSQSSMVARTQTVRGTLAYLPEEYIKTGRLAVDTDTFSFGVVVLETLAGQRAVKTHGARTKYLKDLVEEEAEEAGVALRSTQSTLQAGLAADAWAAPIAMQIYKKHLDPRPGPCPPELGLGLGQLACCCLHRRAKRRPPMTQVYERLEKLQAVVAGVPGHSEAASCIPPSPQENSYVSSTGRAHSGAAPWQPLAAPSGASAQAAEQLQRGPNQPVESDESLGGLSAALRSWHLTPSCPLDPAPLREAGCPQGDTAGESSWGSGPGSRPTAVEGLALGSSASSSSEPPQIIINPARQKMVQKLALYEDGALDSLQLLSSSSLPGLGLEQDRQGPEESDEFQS
Sequence of Hck(h) activated (P08631 whole entry): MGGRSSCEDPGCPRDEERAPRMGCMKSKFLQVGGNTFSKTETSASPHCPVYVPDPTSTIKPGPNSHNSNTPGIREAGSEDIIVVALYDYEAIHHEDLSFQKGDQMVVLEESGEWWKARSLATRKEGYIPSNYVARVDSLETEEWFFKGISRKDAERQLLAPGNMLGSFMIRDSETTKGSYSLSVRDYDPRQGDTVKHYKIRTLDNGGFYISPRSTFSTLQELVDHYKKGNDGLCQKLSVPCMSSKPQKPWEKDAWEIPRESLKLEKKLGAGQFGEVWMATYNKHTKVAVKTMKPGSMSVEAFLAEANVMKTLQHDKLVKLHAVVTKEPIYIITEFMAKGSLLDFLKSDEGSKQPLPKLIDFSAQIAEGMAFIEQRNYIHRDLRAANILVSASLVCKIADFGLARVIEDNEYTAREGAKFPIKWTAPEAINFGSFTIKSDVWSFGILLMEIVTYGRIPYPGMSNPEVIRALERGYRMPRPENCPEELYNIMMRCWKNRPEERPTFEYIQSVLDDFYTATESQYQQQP

Sequence	% activity (CDK5/p25(h)) [%]	% activity (CHK2(R145W)(h)) [%]	% activity (DRAK1(h)) [%]	% activity (EphA4(h)) [%]	% activity (Hck(h) activated) [%]	% activity (IRAK1(h)) [%]	% activity (MINK(h)) [%]	% activity (MSSK1(h)) [%]	% activity (mTOR/FKBP12(h)) [%]	% activity (NLK(h)) [%]	% activity (PAK4(h)) [%]	% activity (PAK5(h)) [%]	% activity (PKBγ(h)) [%]	% activity (PKCγ(h)) [%]	% activity (SRPK1(h)) [%]	% activity (Txk(h)) [%]	% activity (WNK2(h)) [%]	% activity (Met(Y1248D)(h)) [%]
FAKLAARLYRKALARQLGVAA [MMI-0300]	89	33	14	88	82	95	48	77	145	87	94	110	20	89	90	48	64	
KAFAKLAARLYRKALARQLGVAA [MMI-0400]	92	31	14	65	81	93	52	75	125	90	89		41	79	96	37	54	31
YARAAARQARAKALNRQLGVA [MMI-0200]	97	81	34	127	100	101		100	118		98	100		101	93	98	94	118
HRRIKAWLKKIKALARQLGVAA [MMI-0500]	66	3	8	48	67	5	5	22	140	19	86	125	20	6	80	10	8	218
